According to patent publication EP0888374B1:

Molecular target: Complement System Protein C1q (UniProt P02745)
Test: cell-based or functional assay

Sequence of UniProt P02745 (P02745 23-245, chain 1 of 3): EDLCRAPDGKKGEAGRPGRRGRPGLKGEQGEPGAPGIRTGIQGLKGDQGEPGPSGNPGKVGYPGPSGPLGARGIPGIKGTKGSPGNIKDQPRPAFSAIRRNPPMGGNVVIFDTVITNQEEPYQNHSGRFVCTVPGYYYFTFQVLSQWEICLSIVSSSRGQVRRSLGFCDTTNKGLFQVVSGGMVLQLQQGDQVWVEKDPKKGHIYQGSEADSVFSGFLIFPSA
Sequence of UniProt P02745 (P02746 28-253, chain 2 of 3, further chain): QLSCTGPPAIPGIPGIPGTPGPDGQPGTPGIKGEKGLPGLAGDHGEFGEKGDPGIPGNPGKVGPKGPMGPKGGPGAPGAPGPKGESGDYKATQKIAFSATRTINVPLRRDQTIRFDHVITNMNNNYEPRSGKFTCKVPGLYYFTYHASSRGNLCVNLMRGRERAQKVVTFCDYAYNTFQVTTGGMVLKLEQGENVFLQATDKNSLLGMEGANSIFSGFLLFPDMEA
Sequence of UniProt P02745 (P02747 29-245, chain 3 of 3, further chain): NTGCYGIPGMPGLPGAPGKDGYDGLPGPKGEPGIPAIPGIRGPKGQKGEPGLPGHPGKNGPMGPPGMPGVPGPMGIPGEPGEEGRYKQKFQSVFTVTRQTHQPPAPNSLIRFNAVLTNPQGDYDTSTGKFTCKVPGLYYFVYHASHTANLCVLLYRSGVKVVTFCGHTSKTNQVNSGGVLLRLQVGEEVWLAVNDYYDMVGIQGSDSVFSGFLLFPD

Substance: BSA-anti-BSA Immune Complexes (from UniProt P02769 25-607)
- [4d] µg (Class.): 8 µg
